Positions count from the first letter of the chain named. Numbers in names are those of the source.

These results are taken from article PMC6047819, “Small-angle X-ray scattering study of the kinetics of light-dark transition in a LOV protein” (PLoS ONE, 2018).

Data set [1] concerns the molecule itself. The data set is described as follows: SAXS; steady state, fully populated light state (continuous blue-light LED, 450 nm); beamline BM29; 20°C; 10 mM Tris, 10 mM NaCl, pH 7; data of 2.5 and 6.1 mg/mL merged; molecular mass from QR after Rambo and Tainer.
Data set [2] concerns the molecule itself. The experiment in a line: crystal structure; dark-state crystal structure of the double mutant, FMN bound (PDB 6GG9).

B1: PpSB1-LOV-R66I (natural protein, Pseudomonas putida)
chain: MINAQLLQSMVDASNDGIVVAEKEGDDTILIYVNAAFEYLTGYSRDEILYQDCRFLQGDDRDQLGIARIRKAMAEGRPCREVLRNYRKDGSAFWNELSITPVKSDFDQRTYFIGIQKDVSRQVELERELAELRARPKPDERA
notes: PpSB1-LOV, short LOV protein of Pseudomonas putida: LOV core domain flanked by N- and C-terminal helices; mutant R66I; It says that the N-terminal 20 and the C-terminal 8-9 amino acids are disordered in the wild-type crystal structures; also called PpSB1-R66I; PpSB1-LOV mutant R66I; source: purified (Ni-NTA Superflow, SEC on Superdex 200)
By stoichiometry N is commonly meant a count of units in the complex or per binding partner. Regarding B1, in data set [1], the “stoichiometry N” value came to 2.

B2: PpSB1-LOV-R61H/R66I (natural protein, Pseudomonas putida)
chain: B1 chain with R61H
notes: PpSB1-LOV, short LOV protein of Pseudomonas putida; double mutant R61H/R66I; dark-state crystal structure PDB 6GG9; also called PpSB1-R61H/R66I-LOV; double mutant
With B2, the binding result in data set [2] is listed as “binds”.
